According to the supplement of paper PMC9112550, “Optimization of the antimicrobial peptide Bac7 by deep mutational scanning” (BMC Biology, 2022):

System: Escherichia coli TOP10
Assay: shrunken log2 fold change of peptide-encoding DNA abundance (4.5 h post-induction vs induction); higher = less antimicrobial activity (less host growth inhibition)
Settings: time post-induction: 4.5 h; library: site-saturation at positions 5, 18, 19, 20
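Note: peptides expressed intracellularly from a pBAD plasmid library in pooled LB shake-flask culture, induced with 0.3% L-arabinose, DNA abundance read by NGS, three biological replicates, DESeq2 with apeglm shrinkage.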

Sequence	shrunken log2 fold change
RRIRSRPPRLPRPRPRPFHHPRP	-0.804
RRIRCRPPRLPRPRPRPVEQPRP	-0.0247
RRIRGRPPRLPRPRPRPCLLPRP	0.164
RRIRMRPPRLPRPRPRPSTRPRP	0.406
RRIRSRPPRLPRPRPRPCNMPRP	-0.221
RRIRYRPPRLPRPRPRPCTIPRP	-0.118
RRIRGRPPRLPRPRPRPGDNPRP	0.0889
RRIRNRPPRLPRPRPRPACVPRP	0.0235
RRIRWRPPRLPRPRPRPQSIPRP	-0.584
RRIRARPPRLPRPRPRPSQRPRP	0.373
RRIRPRPPRLPRPRPRPTENPRP	0.138
RRIRDRPPRLPRPRPRPHAYPRP	-0.218
RRIRDRPPRLPRPRPRPCGWPRP	0.335
RRIRNRPPRLPRPRPRPLRQPRP	0.154
RRIRQRPPRLPRPRPRPGTLPRP	-0.0134
RRIRPRPPRLPRPRPRPLGFPRP	0.49
RRIRTRPPRLPRPRPRPYEVPRP	-0.0168
RRIRMRPPRLPRPRPRPNMVPRP	-0.147
RRIRARPPRLPRPRPRPDACPRP	0.955
RRIRVRPPRLPRPRPRPIDPPRP	-0.0131
RRIRGRPPRLPRPRPRPVKIPRP	0.16
RRIRFRPPRLPRPRPRPFNKPRP	-0.729
RRIRARPPRLPRPRPRPLWDPRP	0.022
RRIRTRPPRLPRPRPRPHLHPRP	-0.844
RRIRNRPPRLPRPRPRPPFAPRP	0.201

Sequence	shrunken log2 fold change
RRIRIRPPRLPRPRPRPQDYPRP	-0.162
RRIRKRPPRLPRPRPRPPQAPRP	0.0481
RRIRTRPPRLPRPRPRPLPHPRP	-0.00316
RRIRNRPPRLPRPRPRPKFHPRP	-0.078
RRIRSRPPRLPRPRPRPIMRPRP	0.73
RRIRFRPPRLPRPRPRPIRMPRP	-0.191
RRIRERPPRLPRPRPRPPLEPRP	0.161
RRIRWRPPRLPRPRPRPARKPRP	-0.0849
RRIRVRPPRLPRPRPRPCMCPRP	0.00286
RRIRFRPPRLPRPRPRPYNSPRP	-0.136
RRIRMRPPRLPRPRPRPRYKPRP	0.104
RRIRPRPPRLPRPRPRPIAYPRP	-0.0833
RRIRKRPPRLPRPRPRPRREPRP	0.853
RRIRRRPPRLPRPRPRPKIIPRP	-0.364
RRIRTRPPRLPRPRPRPDMTPRP	-0.0206
RRIRFRPPRLPRPRPRPVSDPRP	0.00637
RRIRYRPPRLPRPRPRPIIKPRP	-1.25
RRIRKRPPRLPRPRPRPYMCPRP	-0.0998
RRIRSRPPRLPRPRPRPLYFPRP	-0.682
RRIRTRPPRLPRPRPRPNVVPRP	-0.0363
RRIRPRPPRLPRPRPRPYHGPRP	0.0397
RRIRDRPPRLPRPRPRPREMPRP	0.00815
RRIRYRPPRLPRPRPRPLKAPRP	0.141
RRIRQRPPRLPRPRPRPKNAPRP	0.0178
RRIRMRPPRLPRPRPRPPADPRP	2.99

Sequence	shrunken log2 fold change
RRIRLRPPRLPRPRPRPDHLPRP	-0.0674
RRIRCRPPRLPRPRPRPHVPPRP	-0.0309
RRIRFRPPRLPRPRPRPMMAPRP	0.189
RRIRARPPRLPRPRPRPRAFPRP	0.398
RRIRSRPPRLPRPRPRPNFAPRP	0.245
RRIRSRPPRLPRPRPRPTCKPRP	0.107
RRIRCRPPRLPRPRPRPTFEPRP	-0.279
RRIRDRPPRLPRPRPRPQQDPRP	0.0798
RRIRLRPPRLPRPRPRPVQCPRP	0.079
RRIRVRPPRLPRPRPRPCDEPRP	-0.488
RRIRIRPPRLPRPRPRPLRTPRP	-0.0568
RRIRMRPPRLPRPRPRPAIRPRP	-0.0476
RRIRIRPPRLPRPRPRPKRPPRP	0.449
RRIRTRPPRLPRPRPRPIYCPRP	-0.233
RRIRARPPRLPRPRPRPSDCPRP	-0.164
RRIRIRPPRLPRPRPRPPAKPRP	0.309
RRIRLRPPRLPRPRPRPDHPPRP	-0.123
RRIRLRPPRLPRPRPRPRYIPRP	-0.683
RRIRGRPPRLPRPRPRPHIIPRP	0.234
RRIRQRPPRLPRPRPRPFIFPRP	-0.257
RRIRRRPPRLPRPRPRPAYQPRP	-0.289
RRIRPRPPRLPRPRPRPKDMPRP	-0.0163
RRIRQRPPRLPRPRPRPPCSPRP	0.219
RRIRERPPRLPRPRPRPQDDPRP	0.121
RRIRHRPPRLPRPRPRPLGPPRP	0.191

Sequence	shrunken log2 fold change
RRIRHRPPRLPRPRPRPCAGPRP	-0.195
RRIRARPPRLPRPRPRPGACPRP	0.783
RRIRTRPPRLPRPRPRPGMGPRP	0.104
RRIRARPPRLPRPRPRPDYMPRP	-0.0383
RRIRWRPPRLPRPRPRPMSAPRP	0.338
RRIRERPPRLPRPRPRPQPPPRP	0.104
RRIRIRPPRLPRPRPRPLRRPRP	0.0866
RRIRSRPPRLPRPRPRPLKDPRP	-0.484
RRIRIRPPRLPRPRPRPFQWPRP	-0.192
RRIRFRPPRLPRPRPRPCTLPRP	-0.471
RRIRIRPPRLPRPRPRPQPWPRP	0.102
RRIRDRPPRLPRPRPRPCYQPRP	-0.0177
RRIRERPPRLPRPRPRPPALPRP	0.114
RRIRDRPPRLPRPRPRPHLAPRP	0.302
RRIRRRPPRLPRPRPRPLMFPRP	0.0336
RRIRTRPPRLPRPRPRPWSFPRP	-0.0893
RRIRERPPRLPRPRPRPYSPPRP	-0.0774
RRIRGRPPRLPRPRPRPQQNPRP	0.383
RRIRARPPRLPRPRPRPDNEPRP	0.301
RRIRKRPPRLPRPRPRPITKPRP	-0.0212
RRIRHRPPRLPRPRPRPWRTPRP	-0.229
RRIRFRPPRLPRPRPRPWMVPRP	-0.227
RRIRSRPPRLPRPRPRPYRKPRP	-0.901
RRIRNRPPRLPRPRPRPCSMPRP	-0.132
RRIRWRPPRLPRPRPRPQKSPRP	0.0128

Sequence	shrunken log2 fold change
RRIRGRPPRLPRPRPRPSEIPRP	-0.193
RRIRIRPPRLPRPRPRPYSSPRP	-0.239
RRIRNRPPRLPRPRPRPGFDPRP	0.189
RRIRGRPPRLPRPRPRPHHNPRP	-0.372
RRIRNRPPRLPRPRPRPINQPRP	-0.14
RRIRCRPPRLPRPRPRPAQCPRP	-0.113
RRIRVRPPRLPRPRPRPCINPRP	0.0189
RRIRCRPPRLPRPRPRPTYMPRP	-0.432
RRIRMRPPRLPRPRPRPEYTPRP	-0.0269
RRIRVRPPRLPRPRPRPIKYPRP	-0.169
RRIRCRPPRLPRPRPRPGHMPRP	-0.0628
RRIRWRPPRLPRPRPRPHTFPRP	-0.0424
RRIRYRPPRLPRPRPRPSITPRP	-0.857
RRIRGRPPRLPRPRPRPDNMPRP	-0.185
RRIRSRPPRLPRPRPRPIWQPRP	-0.0554
RRIRNRPPRLPRPRPRPNEKPRP	-0.00172
RRIRVRPPRLPRPRPRPNYCPRP	-0.157
RRIRVRPPRLPRPRPRPRLLPRP	0.0401
RRIRPRPPRLPRPRPRPWNEPRP	-0.138
RRIRCRPPRLPRPRPRPKPHPRP	0.398
RRIRCRPPRLPRPRPRPVNVPRP	-0.249
RRIRFRPPRLPRPRPRPCAFPRP	-0.393
RRIRIRPPRLPRPRPRPINYPRP	-0.379
RRIRWRPPRLPRPRPRPCYGPRP	0.22
RRIRERPPRLPRPRPRPDLDPRP	-0.0232
